pKd: −log10 of the molar value.
Tests used:
[1] = target: 5-FAM-labeled H2B(17-23)K19Ac K21Ac peptide of L. donovani histone H2B (Leishmania donovani); assay: fluorescence polarisation; 800 nM 5-FAM peptide, protein 0-300 μM; 20 mM HEPES, 500 mM NaCl, 1 mg/mL BSA, pH 7.5; 30 min at room temperature; one-site-specific binding fit (two-site for BD5T); n = 3
[2] = target: 5-FAM-labeled H2B(9-23)K9Ac K15Ac K19Ac K21Ac peptide of L. donovani histone H2B (Leishmania donovani); assay: as above
[3] = target: 5-FAM-labeled H2B(8-16)K9Ac K15Ac peptide of L. donovani histone H2B (Leishmania donovani); assay: as above
[4] = target: unlabeled pan-acetylated peptide based on the H2B(9-23) sequence of L. donovani histone H2B (Leishmania donovani); assay: thermal shift assay; 2.1 μM BD5T, 2x SYPRO orange, peptide at 400 μM, 20 mM HEPES, 500 mM NaCl, pH 7.5; 25 to 95 °C; n = 6

| pKd [1] | pKd [2] | pKd [3] | ΔTm at 400 μM peptide [4] | Substance |
| --- | --- | --- | --- | --- |
| 4.11 | 3.93 | 3.77 | – | Leishmania donovani bromodomain factor 5 (LdBDF5) first bromodomain, recombinant BD5.1 (domain or fragment) |
| 3.80 | 3.33 | 3.44 | – | Leishmania donovani bromodomain factor 5 (LdBDF5) second bromodomain, recombinant BD5.2 (domain or fragment) |
| – | – | – | 0.6 °C | Leishmania donovani bromodomain factor 5 (LdBDF5) tandem bromodomain pair, recombinant BD5T (domain or fragment) |

Source: paper PMC10644352, “Bromodomain Factor 5 as a Target for Antileishmanial Drug Discovery” (ACS Infectious Diseases, 2023)
